Experiment [1] concerns the target T1, CV-A4结构蛋白VP1的1号肽段 (VP1前1-15氨基酸) (Coxsackievirus A4).
T1 construct: Synthetic peptide; also called VP1 1-15
T1 peptide: GDAIADAIQNTVTTT
As to the kind of experiment: indirect ELISA on coated overlapping VP1 peptides, 7H11E 1μg/ml.

Another experiment addresses T2, VP1-7A-G (Coxsackievirus A4).
T2 construct: Synthetic single-site mutant peptide; also called VP1 1-15 peptide, position 7 A-G
T2 peptide: GDAIADGIQNTVTTT
The experiment in a line: indirect ELISA on coated mutant peptide (+ means ELISA positive). On the technique in general: ELISA stands for enzyme-linked immunosorbent assay.

Another experiment addresses T3, VP1-8I-G (Coxsackievirus A4).
T3 construct: Synthetic single-site mutant peptide; also called VP1 1-15 peptide, position 8 I-G
T3 peptide: GDAIADAGQNTVTTT
The experiment is described as above.

For the next experiment, the target named is T4, VP1-9Q-G (Coxsackievirus A4).
T4 construct: Synthetic single-site mutant peptide; also called VP1 1-15 peptide, position 9 Q-G
T4 peptide: GDAIADAIGNTVTTT
The description is as above.

Another experiment addresses T5, VP1-10N-G (Coxsackievirus A4).
T5 construct: Synthetic single-site mutant peptide; also called VP1 1-15 peptide, position 10 N-G
T5 peptide: GDAIADAIQGTVTTT
The experiment is described as above.

The next experiment addresses T6, VP1-11T-G (Coxsackievirus A4).
T6 construct: Synthetic single-site mutant peptide; also called VP1 1-15 peptide, position 11 T-G
T6 peptide: GDAIADAIQNGVTTT
The description is as above.

The target of another experiment is T7, VP1-12V-G (Coxsackievirus A4).
T7 construct: Synthetic single-site mutant peptide; also called VP1 1-15 peptide, position 12 V-G
T7 peptide: GDAIADAIQNTGTTT
The experiment is described as above.

Another experiment deals with T8, VP1-13T-G (Coxsackievirus A4).
T8 construct: Synthetic single-site mutant peptide; also called VP1 1-15 peptide, position 13 T-G
T8 peptide: GDAIADAIQNTVGTT
Described as above.

Another experiment deals with T9, VP1-14T-G (Coxsackievirus A4).
T9 construct: Synthetic single-site mutant peptide; also called VP1 1-15 peptide, position 14 T-G
T9 peptide: GDAIADAIQNTVTGT
The experiment is described as above.

The next experiment deals with T10, VP1-15T-G (Coxsackievirus A4).
T10 construct: Synthetic single-site mutant peptide; also called VP1 1-15 peptide, position 15 T-G
T10 peptide: GDAIADAIQNTVTTG
Described as above.

For another experiment, the target named is T11, VP1-5A-G (Coxsackievirus A4).
T11 construct: Synthetic single-site mutant peptide; also called VP1 1-15 peptide, position 5 A-G
T11 peptide: GDAIGDAIQNTVTTT
Described as above.

Another experiment has as its target T12, VP1-2D-G (Coxsackievirus A4).
T12 construct: Synthetic single-site mutant peptide; also called VP1 1-15 peptide, position 2 D-G
T12 peptide: GGAIADAIQNTVTTT
As to the kind of experiment: indirect ELISA on coated mutant peptide (- means ELISA negative).

The target of the next experiment is T13, VP1-3A-G (Coxsackievirus A4).
T13 construct: Synthetic single-site mutant peptide; also called VP1 1-15 peptide, position 3 A-G
T13 peptide: GDGIADAIQNTVTTT
Described as above.

The target in another experiment is T14, VP1-4I-G (Coxsackievirus A4).
T14 construct: Synthetic single-site mutant peptide; also called VP1 1-15 peptide, position 4 I-G
T14 peptide: GDAGADAIQNTVTTT
The description is as above.

In another experiment the target is T15, VP1-6D-G (Coxsackievirus A4).
T15 construct: Synthetic single-site mutant peptide; also called VP1 1-15 peptide, position 6 D-G
T15 peptide: GDAIAGAIQNTVTTT
The description is as above.

B1: 单克隆抗体7H11E (antibody, V domains shown)
VH: SGPGLVAPSQSLSITCTVSGFSLPSYDVHWVRQPPGKGLEWLGVIWAGGSTHYNSALMSRLSISKDNSKSQVFLKMNSLQTDDTAMYYCAGLRAFAMDYWGQGTSVTVSS
VL: PIVLTQSPAILSVSPGERVSFSCRASQSIGTNIHWYQQGANGSPRLLIKYASESISGIPSRFSGSGSGTDFTLSINSVESEDIADYYCQQSNSWPWTFGGGTKLEIQR
notes: Mouse hybridoma antibody purified from ascites, IgG2b subtype; also called 7H11E单克隆抗体
Turning to B1, the binding result (in experiment [1]; with VP1-7A-G; with VP1-8I-G; in the experiment with VP1-9Q-G; with VP1-10N-G; in the experiment with VP1-11T-G) was “binds” each time. For the same molecule, the binding result with VP1-12V-G is reported as “binds”; with VP1-13T-G it was “binds”; with VP1-14T-G it was “binds”; in the experiment with VP1-15T-G it was “binds”; with VP1-5A-G it was “binds”; with VP1-2D-G, “no binding”. For the same molecule, the binding result with VP1-3A-G, with VP1-4I-G and with VP1-6D-G was “no binding” throughout.

The record behind these values is CN116239682A (WUHAN INST OF BIOLOGICAL PRODUCTS CO LTD, dated 2023).
